These results are taken from article PMC3926839, “Evaluation of Zinc (II) chelators for inhibiting p53-mediated apoptosis”.

The data set concerns the target FLAG-p53 (UniProt P04637 1-393). The experiment in a line: EMSA; BPA (Zn(II) chelator) preincubated; no inhibition; FLAG-p53 12.5 nM; 10 mM Tris-HCl pH 7.4, 2.5 mM DTT, 0.05% NP-40; 10 min preincubation with chelator at 37 °C, then 3 h with probe at 37 °C; electrophoresis at. Conditions: protein: recombinant; tags: FLAG; chain copies: 4; label: FITC; blunt (only the sense strand is printed; it is self-complementary). Background: A gel shift assay detects complexes by their altered migration in electrophoresis.

Sequence of FLAG-p53 (P04637 whole entry): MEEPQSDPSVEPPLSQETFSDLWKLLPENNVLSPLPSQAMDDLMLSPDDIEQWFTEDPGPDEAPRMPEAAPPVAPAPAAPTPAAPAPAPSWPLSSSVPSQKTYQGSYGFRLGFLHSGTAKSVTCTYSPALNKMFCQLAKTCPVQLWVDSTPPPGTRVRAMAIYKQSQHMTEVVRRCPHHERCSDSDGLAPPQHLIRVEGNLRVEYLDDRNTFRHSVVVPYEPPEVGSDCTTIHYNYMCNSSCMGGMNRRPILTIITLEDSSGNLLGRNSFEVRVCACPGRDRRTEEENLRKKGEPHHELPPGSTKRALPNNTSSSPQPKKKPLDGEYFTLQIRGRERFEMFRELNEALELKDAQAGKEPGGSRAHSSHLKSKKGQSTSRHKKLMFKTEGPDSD

B1: p53 consensus probe (dsDNA)
DNA 1: GGACATGCCCGGGCATGTCC
DNA 2: GGACATGCCCGGGCATGTCC
Regarding B1, the binding result is on record as “binds”.
